The record followed here is publication PMC9126950, “SARS-CoV-2 detection using a nanobody-functionalized voltammetric device” (Communications Medicine, 2022).

In assay [1] the target is T1, SARS-CoV-2 spike receptor binding domain (RBD), recombinant (SARS-CoV-2, UniProt P0DTC2 319-541).
T1 construct: also called SARS-CoV-2 RBD; Spike RBD
In words: SPR. The note with it: both partners purified.

Assay [2] addresses T2, SARS-CoV-2 spike receptor binding domain (RBD), recombinant (SARS-CoV-2, UniProt P0DTC2).
T2 construct: also called SARS-CoV-2 RBD; Spike RBD
In words: electrochemical titration (differential pulse voltammetry). The note with it: both partners purified.

B1: VHH-72-C13 (VHH)
VHH: QVQLQESGGGLVCAGGSLRLSCAASGRTFSEYAMGWFRQAPGKEREFVATISWSGGSTYYTDSVKGRFTISRDNAKNTVYLQMNSLKPDDTAVYYCAAAGLGTVVSEWDYDYDYWGQGTQVTVSS
notes: also called VHH-72-13C; VHH-C13
As to B1, in assay [1], the Kd worked out at 12.1 nM.

B2: VHH-72 (VHH)
VHH: QVQLQESGGGLVQAGGSLRLSCAASGRTFSEYAMGWFRQAPGKEREFVATISWSGGSTYYTDSVKGRFTISRDNAKNTVYLQMNSLKPDDTAVYYCAAAGLGTVVSEWDYDYDYWGQGTQVTVSS
Consider B2, for which, in assay [2], the Kd came out at 78 nM.
